# According to patent US20180117147A1:
# Columns and labels:
# [1] = target: human KIR2DL3 expressed on NK and T lymphocytes of KIR2DL3 transgenic C57Bl/6 mice (human) (UniProt P43628); assay: in vivo receptor occupancy in whole blood of KIRtgB6 mice, 20 mg/kg iv, for 14 days
# [2] = target: human KIR2DL3 expressed on NK and T lymphocytes of KIR2DL3 transgenic C57Bl/6 mice (human) (UniProt P43628); assay: in vivo receptor occupancy in KIRtgB6 mice, 10 mg/kg iv, for 8 days
# UniProt P43628, sequence (P43628 22-341): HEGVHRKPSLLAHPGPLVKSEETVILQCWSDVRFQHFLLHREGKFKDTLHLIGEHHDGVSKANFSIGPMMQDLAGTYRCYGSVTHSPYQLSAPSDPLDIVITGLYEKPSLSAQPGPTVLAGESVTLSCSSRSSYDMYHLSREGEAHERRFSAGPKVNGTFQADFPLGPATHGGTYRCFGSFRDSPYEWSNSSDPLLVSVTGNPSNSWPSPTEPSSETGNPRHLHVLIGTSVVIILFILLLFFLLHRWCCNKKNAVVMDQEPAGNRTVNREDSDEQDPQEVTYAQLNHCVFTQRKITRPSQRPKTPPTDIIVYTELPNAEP
substance,measurement,setting,value
Anti-KIR antibody clone GL183,KIR receptor occupancy,[1],> 90%
same,KIR receptor occupancy,[2],> 90%
